The results in this text go back to patent US20060140934A1 (Amgen, published 2006).

One experiment concerns the target T1, myostatin (UniProt O14793 267-375, limits assumed).
T1 sequence (looked up): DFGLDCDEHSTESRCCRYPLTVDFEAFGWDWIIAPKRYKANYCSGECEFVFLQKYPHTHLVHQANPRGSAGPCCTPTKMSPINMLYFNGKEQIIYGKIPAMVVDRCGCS
Briefly: cell-based or functional assay.

In another experiment the target is FcRn. The experiment in a line: Biacore FcRn binding.
FcRn, sequence (chain, as listed by the source, chain 1 of 2): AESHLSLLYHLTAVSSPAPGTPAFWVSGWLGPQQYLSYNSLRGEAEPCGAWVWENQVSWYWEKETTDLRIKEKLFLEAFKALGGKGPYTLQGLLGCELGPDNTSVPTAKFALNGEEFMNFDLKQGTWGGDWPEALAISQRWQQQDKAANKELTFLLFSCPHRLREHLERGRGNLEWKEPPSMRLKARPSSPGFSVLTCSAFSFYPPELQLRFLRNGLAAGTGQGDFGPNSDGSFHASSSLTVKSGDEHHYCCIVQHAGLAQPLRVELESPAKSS
FcRn, sequence (chain, as listed by the source, chain 2 of 2): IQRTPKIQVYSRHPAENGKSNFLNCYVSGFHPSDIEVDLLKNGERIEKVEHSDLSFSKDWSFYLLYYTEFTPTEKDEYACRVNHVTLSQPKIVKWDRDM

B1: Fc-Loop TN8-19-7 construct with insertion at L139/T140 and asymmetric Gly4/Gly6 linkers (CH3 domain) (Fc fusion)
chain: MDKTHTCPPCPAPELLGGPSVFLFPPKPKDTLMISRTPEVTCVVVDVSHEDPEVKFNWYVDGVEVHNAKTKPREEQYNSTYRVVSVLTVLHQDWLNGKEYKCKVSNKALPAPIEKTISKAKGQPREPQVYTLPPSRDELGGGGLADHGQCIRWPWMCPPEGWEGGGGGGTKNQVSLTCLVKGFYPSDIAVEWESNGQPENNYKTTPPVLDSDGSFFLYSKLTVDKSRWQQGNVFSCSVMHEALHNHYTQKSLSLSPGK
Consider B1, for which the “IC50(nM), in vitro cell based myostatin inhibition assay (luciferase reporter, C2C12 pMARE-luc)” value in the experiment with myostatin is 0.873 nM.

B2: Fc-loop TN8-19-07 (clone #6951) (Fc fusion)
chain: MDKTHTCPPCPAPELLGGPSVFLFPPKPKDTLMISRTPEVTCVVVDVSHEDPEVKFNWYVDGVEVHNAKTKPREEQYNSTYRVVSVLTVLHQDWLNGKEYKCKVSNKALPAPIEKTISKAKGQPREPQVYTLPPSRDELGGLADHGQCIRWPWMCPPEGWEGGTKNQVSLTCLVKGFYPSDIAVEWESNGQPENNYKTTPPVLDSDGSFFLYSKLTVDKSRWQQGNVFSCSVMHEALHNHYTQKSLSLSPGK
Consider B2, for which the “IC50(nM), in vitro cell based myostatin inhibition assay (luciferase reporter, C2C12 pMARE-luc)” value with myostatin stood at 0.834 nM.

B3: Fc-Loop TN8-19-7 construct with insertion at Y77/N78 (CH2 domain) (Fc fusion, not shown: small tags and cut ends)
chain: MDKTHTCPPCPAPELLGGPSVFLFPPKPKDTLMISRTPEVTCVVVDVSHEDPEVKFNWYVDGVEVHNAKTKPREEQYLADHGQCIRWPWMCPPEGWENSTYRVVSVLTVLHQDWLNGKEYKCKVSNKALPAPIEKTISKAKGQPREPQVYTLPPSRDELTKNQVSLTCLVKGFYPSDIAVEWESNGQPENNYKTTPPVLDSDGSFFLYSKLTVDKSRWQQGNVFSCSVMHEALHNHYTQKSLSLSPGK
As a reminder, the EC50 is the concentration that produces a half-maximal response. A lower EC50 goes with higher potency in that assay. Molecule B3 had an EC50 with FcRn of about 680 nM.

B4: Fc-Loop TN8-19-7 construct with insertion at H49/E50 (CH2 domain) (Fc fusion, not shown: small tags and cut ends)
chain: MDKTHTCPPCPAPELLGGPSVFLFPPKPKDTLMISRTPEVTCVVVDVSHLADHGQCIRWPWMCPPEGWEEDPEVKFNWYVDGVEVHNAKTKPREEQYNSTYRVVSVLTVLHQDWLNGKEYKCKVSNKALPAPIEKTISKAKGQPREPQVYTLPPSRDELTKNQVSLTCLVKGFYPSDIAVEWESNGQPENNYKTTPPVLDSDGSFFLYSKLTVDKSRWQQGNVFSCSVMHEALHNHYTQKSLSLSPGK
The molecule B4 registered an EC50 with FcRn of about 680 nM.
